From patent publication US20220017623A1, “TREATMENT OF CANCER USING A CEA CD3 BISPECIFIC ANTIBODY AND A WNT SIGNALING INHIBITOR” (Hoffmann-La Roche Inc., priority 2019, published 2022)

Target: Carcinoembryonic antigen (CEA) (human) (UniProt P06731)
Assay: cell-based or functional assay

Sequence of Carcinoembryonic antigen (CEA) (human) (P06731 35-702): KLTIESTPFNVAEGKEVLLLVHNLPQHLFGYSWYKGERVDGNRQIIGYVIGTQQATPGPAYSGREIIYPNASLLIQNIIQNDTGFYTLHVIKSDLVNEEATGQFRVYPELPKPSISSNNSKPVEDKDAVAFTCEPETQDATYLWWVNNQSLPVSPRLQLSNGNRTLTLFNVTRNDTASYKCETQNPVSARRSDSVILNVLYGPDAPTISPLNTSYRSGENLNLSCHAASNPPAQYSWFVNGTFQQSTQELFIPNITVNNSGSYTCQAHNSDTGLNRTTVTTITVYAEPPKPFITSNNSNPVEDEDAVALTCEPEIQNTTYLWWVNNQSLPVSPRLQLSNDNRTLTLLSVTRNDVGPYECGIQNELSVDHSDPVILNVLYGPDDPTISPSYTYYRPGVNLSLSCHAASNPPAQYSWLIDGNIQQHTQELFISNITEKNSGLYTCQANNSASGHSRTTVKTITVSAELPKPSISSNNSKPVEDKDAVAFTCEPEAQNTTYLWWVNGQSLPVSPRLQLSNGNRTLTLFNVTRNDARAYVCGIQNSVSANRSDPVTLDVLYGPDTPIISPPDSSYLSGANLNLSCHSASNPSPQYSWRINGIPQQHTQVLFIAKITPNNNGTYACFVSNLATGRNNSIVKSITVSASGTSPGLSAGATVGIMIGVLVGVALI

## cibisatamab (bispecific antibody)
  Pearson correlation of growth reduction with the fraction of CEAhi cancer cells in each PDO: 0.915 r
